The values below come from paper PMC5680235, “Identification of a peptide recognizing cerebrovascular changes in mouse models of Alzheimer’s disease” (Nature Communications, 2017).

This assay has as its target T1, full-length recombinant human CTGF/CCN2 (human, UniProt P29279 27-349).
T1 construct: connective tissue growth factor (CTGF/CCN2), human, full-length recombinant; also called connective tissue growth factor; recombinant CTGF; source: bought: R&D systems (cat#9190-CC)
T1 sequence (looked up): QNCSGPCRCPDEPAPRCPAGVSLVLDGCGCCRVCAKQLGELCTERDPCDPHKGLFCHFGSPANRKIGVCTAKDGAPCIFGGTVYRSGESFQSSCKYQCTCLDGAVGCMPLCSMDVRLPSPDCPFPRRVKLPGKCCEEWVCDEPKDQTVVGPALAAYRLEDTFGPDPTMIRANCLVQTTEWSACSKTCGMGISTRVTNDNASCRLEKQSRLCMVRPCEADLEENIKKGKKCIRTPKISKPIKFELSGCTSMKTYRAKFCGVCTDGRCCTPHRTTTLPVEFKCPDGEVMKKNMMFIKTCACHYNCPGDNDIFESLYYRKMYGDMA
Nature of the assay: ELISA; plate wells coated with recombinant human CTGF; FAM-peptide in 0.05% Casein/PBST overnight at 4 °C, two peptide concentrations; alone or with excess unlabeled DAG (0.6 mM); detected with anti-FITC HRP antibody, absorbance at 450 nm. The note with it: both partners purified. On the technique in general: ELISA stands for enzyme-linked immunosorbent assay.

Where no end group is shown, it is not given here. FAM = 5(6)-carboxyfluorescein label

B1: FAM-labeled DAG peptide (cyclic CDAGRKQKC) (peptide)
peptide: {FAM}-CDAGRKQKC
modifications: also: cyclic peptide, ring type not given here
notes: cyclic 9-amino acid CX7C peptide found by in vivo T7 phage display in hAPP-J20 mice; Synthesised on rink amide resin, so the C-terminus is probably an amide; the ring is probably a disulfide between the two cysteines (neither is stated for this peptide); also called FAM-DAG; source: synthetic peptide
On to B1, for which the binding result was “binds”.

B2: unlabeled DAG peptide (cyclic CDAGRKQKC) (peptide)
peptide: CDAGRKQKC
modifications: also: cyclic peptide, ring type not given here
notes: cyclic 9-amino acid CX7C peptide found by in vivo T7 phage display, without label; Synthesised on rink amide resin, so the C-terminus is probably an amide; also called non-labeled DAG; free DAG; source: synthetic peptide
Take B2: the binding result is “binds”.
